{
  "source": "the RNAGym collection of RNA variant scans (doi:10.1073/pnas.2313332121)",
  "parents": {"B1": {"name": "TPR 5TU (parent)", "chain": "GGAUCUUCUCGAUCUAACAAAAAAGACAAAUCUGCCACAAAGCUUGAGAGCAUCUUCGGAUGCAGAGGCGGCAGCCUUCGGUGGCGCGAUAGCGCCAACGUUCUCAACUAUGACACGCAAAACGCGUGCUCCGUUGAAUGGAGUUUAUCAUG"}},
  "note": "This sample holds only a part of the variants without activity.",
  "data": [
    {"variants_of": "B1", "experiment": "polymerase ribozyme fitness, log enrichment relative to wild type (log ratio); higher = more active; in vitro selection for triplet polymerase activity", "procedure,_shortened": "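Each subunit of a heterodimeric triplet polymerase ribozyme was mutagenized into a library by PCR, transcribed, and subjected to one round of in vitro selection, run in triplicate. Libraries were annealed with a biotinylated primer, the partner subunit and triplets, incubated frozen at −7 °C, and extended constructs were gel-excised, captured on streptavidin beads and recovered by RT-PCR. Input and output libraries were sequenced on Illumina, keeping genotypes with ≥10 input reads and ≥1 read per output. Fitness is log base 2 of genotype enrichment divided by wild-type enrichment, from inverse-variance-weighted replicate averages.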", "values": [
      {"variant": "A47C U61A", "polymerase ribozyme fitness (log ratio)": -3.21},
      {"variant": "A47C C75G U77A G88A A106U", "polymerase ribozyme fitness (log ratio)": "≤ -4.2"},
      {"variant": "A47C G59A G62C G67C G68C C99U A107U C114A A121G", "polymerase ribozyme fitness (log ratio)": "≤ -4.2"},
      {"variant": "G48A G67U G80C C85U C132U", "polymerase ribozyme fitness (log ratio)": "≤ -4.2"},
      {"variant": "A47G C54A", "polymerase ribozyme fitness (log ratio)": -1.65},
      {"variant": "U45G C85U", "polymerase ribozyme fitness (log ratio)": -0.0479},
      {"variant": "A47U A52G U144G", "polymerase ribozyme fitness (log ratio)": 0.507},
      {"variant": "G48U G92U U144C", "polymerase ribozyme fitness (log ratio)": -0.761},
      {"variant": "A47C C96A", "polymerase ribozyme fitness (log ratio)": -0.697},
      {"variant": "G48C U61A U77A C125U U144A", "polymerase ribozyme fitness (log ratio)": "≤ -4.2"},
      {"variant": "G46U G58U A89U U102G C118G C129A G152U", "polymerase ribozyme fitness (log ratio)": "≤ -4.2"},
      {"variant": "A47C C57A C105A G126A", "polymerase ribozyme fitness (log ratio)": -3.51},
      {"variant": "A47G G59C U61A G92C G141A U148C", "polymerase ribozyme fitness (log ratio)": "≤ -4.2"},
      {"variant": "A47U U55G G68A G84U U151A", "polymerase ribozyme fitness (log ratio)": "≤ -4.2"},
      {"variant": "A49C A64U G67U G68A G71A", "polymerase ribozyme fitness (log ratio)": "≤ -4.2"},
      {"variant": "A47C U61C C96U", "polymerase ribozyme fitness (log ratio)": -3.35},
      {"variant": "A47U C54A C75G G140A", "polymerase ribozyme fitness (log ratio)": "≤ -4.2"},
      {"variant": "U45A G83C C105U C131G", "polymerase ribozyme fitness (log ratio)": "≤ -4.2"},
      {"variant": "A47C C105A", "polymerase ribozyme fitness (log ratio)": -1.02},
      {"variant": "U45A U77G G84U C118U", "polymerase ribozyme fitness (log ratio)": "≤ -4.2"},
      {"variant": "A47U U61A", "polymerase ribozyme fitness (log ratio)": -1.41},
      {"variant": "G46C C93U C96U", "polymerase ribozyme fitness (log ratio)": -2.86},
      {"variant": "G46U U61A G92U C96A A137G", "polymerase ribozyme fitness (log ratio)": "≤ -4.2"},
      {"variant": "A47G U61G A142G", "polymerase ribozyme fitness (log ratio)": -2.82},
      {"variant": "U44G A52G U53A C75A", "polymerase ribozyme fitness (log ratio)": "≤ -4.2"},
      {"variant": "U45A C57A C95U", "polymerase ribozyme fitness (log ratio)": -2.12},
      {"variant": "A49C A64U C87A U104G G143A", "polymerase ribozyme fitness (log ratio)": "≤ -4.2"},
      {"variant": "A47U A49C C51U C93A", "polymerase ribozyme fitness (log ratio)": "≤ -4.2"},
      {"variant": "A47C A107U C108A", "polymerase ribozyme fitness (log ratio)": "≤ -4.2"},
      {"variant": "G48C U53C G136U", "polymerase ribozyme fitness (log ratio)": -3.16},
      {"variant": "U45A A47C C54A C57A U90C G140C", "polymerase ribozyme fitness (log ratio)": "≤ -4.2"},
      {"variant": "U45A G46C A98U", "polymerase ribozyme fitness (log ratio)": "≤ -4.2"},
      {"variant": "G46A C85A C87U C99A", "polymerase ribozyme fitness (log ratio)": "≤ -4.2"},
      {"variant": "A47U C51U C87U A113U G152A", "polymerase ribozyme fitness (log ratio)": -3.99},
      {"variant": "A47G C93A C131U U134C", "polymerase ribozyme fitness (log ratio)": -0.603},
      {"variant": "G48A U55A A119U G124U U144C", "polymerase ribozyme fitness (log ratio)": -1.13},
      {"variant": "G46A G70U C85G", "polymerase ribozyme fitness (log ratio)": "≤ -4.2"},
      {"variant": "U44G A120U", "polymerase ribozyme fitness (log ratio)": "≤ -4.2"},
      {"variant": "A47G C69A A122G", "polymerase ribozyme fitness (log ratio)": -3.43},
      {"variant": "U45A U55A", "polymerase ribozyme fitness (log ratio)": -2.95},
      {"variant": "G48A U56A U109G", "polymerase ribozyme fitness (log ratio)": -1.39},
      {"variant": "A47U A49G A98G U101A", "polymerase ribozyme fitness (log ratio)": "≤ -4.2"},
      {"variant": "A47U G81A C125G A150C", "polymerase ribozyme fitness (log ratio)": "≤ -4.2"},
      {"variant": "G46U G62A C76A C87U G88A C118U U134A", "polymerase ribozyme fitness (log ratio)": "≤ -4.2"},
      {"variant": "G46A G59U", "polymerase ribozyme fitness (log ratio)": 0.917},
      {"variant": "A47G G59A", "polymerase ribozyme fitness (log ratio)": 0.381},
      {"variant": "G48C C85U U102G U104A C118U C125A", "polymerase ribozyme fitness (log ratio)": -4.14},
      {"variant": "A47C U151G G152A", "polymerase ribozyme fitness (log ratio)": -4.19},
      {"variant": "A49C A107G U151C", "polymerase ribozyme fitness (log ratio)": "≤ -4.2"},
      {"variant": "U45G A52U U55A A73U C85U G117A C149A", "polymerase ribozyme fitness (log ratio)": "≤ -4.2"},
      {"variant": "A47U G58C U61G G81A", "polymerase ribozyme fitness (log ratio)": -3.65},
      {"variant": "G48A A150U", "polymerase ribozyme fitness (log ratio)": -0.592},
      {"variant": "A47C U56G A91U C96G C118U A122C C131U U139C U148A", "polymerase ribozyme fitness (log ratio)": "≤ -4.2"},
      {"variant": "U44A G81A A137G", "polymerase ribozyme fitness (log ratio)": "≤ -4.2"},
      {"variant": "U45A U77G G86U U104A C123A", "polymerase ribozyme fitness (log ratio)": "≤ -4.2"},
      {"variant": "G48C U102G", "polymerase ribozyme fitness (log ratio)": -2.42},
      {"variant": "U44A U90G C93U G143A U151G", "polymerase ribozyme fitness (log ratio)": "≤ -4.2"},
      {"variant": "G48A C93G", "polymerase ribozyme fitness (log ratio)": -3.69},
      {"variant": "G46A A52C U61G", "polymerase ribozyme fitness (log ratio)": -0.687},
      {"variant": "G46U A64U C76A C87A G126U", "polymerase ribozyme fitness (log ratio)": "≤ -4.2"},
      {"variant": "G46A G74C", "polymerase ribozyme fitness (log ratio)": "≤ -4.2"},
      {"variant": "U45A C114U", "polymerase ribozyme fitness (log ratio)": -4.01},
      {"variant": "G46A A52G G86U A91G A98U C114G", "polymerase ribozyme fitness (log ratio)": "≤ -4.2"},
      {"variant": "G48A A137G C149U", "polymerase ribozyme fitness (log ratio)": -3.82},
      {"variant": "A49C A66U", "polymerase ribozyme fitness (log ratio)": "≤ -4.2"},
      {"variant": "A49C A66G", "polymerase ribozyme fitness (log ratio)": "≤ -4.2"},
      {"variant": "U44A U144G U151G", "polymerase ribozyme fitness (log ratio)": "≤ -4.2"},
      {"variant": "G48C C79A G86U C96U G124A", "polymerase ribozyme fitness (log ratio)": "≤ -4.2"},
      {"variant": "A47C C54A C76U C85G A106U G143C", "polymerase ribozyme fitness (log ratio)": "≤ -4.2"},
      {"variant": "G46A G50C A52C C69A", "polymerase ribozyme fitness (log ratio)": "≤ -4.2"},
      {"variant": "G48C C99U C105G", "polymerase ribozyme fitness (log ratio)": "≤ -4.2"},
      {"variant": "U44G A60U A115C", "polymerase ribozyme fitness (log ratio)": "≤ -4.2"},
      {"variant": "G48A U127G", "polymerase ribozyme fitness (log ratio)": -3.5},
      {"variant": "A47C C69A C87U G100U A121G G143U", "polymerase ribozyme fitness (log ratio)": "≤ -4.2"},
      {"variant": "G48A C75U C87A G143A", "polymerase ribozyme fitness (log ratio)": "≤ -4.2"},
      {"variant": "U45A A52G C63G A64U G70C A89C U101G C116A", "polymerase ribozyme fitness (log ratio)": "≤ -4.2"},
      {"variant": "A47C C51A C54U U61A C79A C93G C95A C132U C149U", "polymerase ribozyme fitness (log ratio)": "≤ -4.2"},
      {"variant": "G48U U55G C118G C131U A137C U145A", "polymerase ribozyme fitness (log ratio)": "≤ -4.2"},
      {"variant": "A47C G124U", "polymerase ribozyme fitness (log ratio)": -1.09},
      {"variant": "A47C C87U C105A A119C", "polymerase ribozyme fitness (log ratio)": -1.51},
      {"variant": "A49C A137C", "polymerase ribozyme fitness (log ratio)": "≤ -4.2"},
      {"variant": "A47G U55A G84U G128A", "polymerase ribozyme fitness (log ratio)": "≤ -4.2"},
      {"variant": "A47C C51U C54U C72U G84U", "polymerase ribozyme fitness (log ratio)": -3.18},
      {"variant": "A47G C51G C76U C87U U104G A107U U151C", "polymerase ribozyme fitness (log ratio)": "≤ -4.2"}
    ]}
  ]
}
